In US20140221283A1 (INDIANA UNIVERSITY RESEARCH AND TECHNOLOGY, published 2014):
*1 amine or outer side, *2 acyl side, *3 side chain or, on linkers, in order; H or OH if unused. Where no end group is shown, it is not given here. Side-chain parts run from the residue outwards. [ ]: non-standard residue; d: D form. The star is where a group is joined. γGlu = O=C(O)[C@H](CCC(=O)[*:2])N[*:1]; Palmitoyl = CCCCCCCCCCCCCCCC(=O)*; Met(O) = CS(=O)CC[C@H](N)C(=O)O; Aib = CC(C)(N)C(=O)O

B1: peptide of SEQ ID NO: 14 (peptide)
peptide: HSQGTFTSDKSKYLDERAAQDFVQWLLDTKX
modifications: lower-case 's' at position 2 (taken as D-Ser; the table does not explain it); Lys at position 10 acylated as K(γGlu-C16); C-terminal γGlu; C-terminal amide
B2: peptide of SEQ ID NO: 15 (peptide)
peptide: H[Aib]QGTFTSDK([γGlu-γGlu-Palmitoyl])SKYLD[Aib]RAAQDFVQWL[Met(O)]DTKQ-OH
modifications: not fully specified; printed as HaibQGTFTSDK(γGlu-γGlu-C16)SKYLDaibRAAQDFVQWLMornDTKQ-acid
B3: peptide of SEQ ID NO: 16 (peptide)
peptide: H[Aib]QGTFTSDK([γGlu-γGlu-Palmitoyl])SKYLD[Aib]RAAQDFVQWLLDTKQ-OH
modifications: N-terminus assumed
SMILES: CCCCCCCCCCCCCCCC(=O)N[C@@H](CCC(=O)N[C@@H](CCC(=O)NCCCC[C@H](NC(=O)[C@H](CC(=O)O)NC(=O)[C@H](CO)NC(=O)[C@@H](NC(=O)[C@H](Cc1ccccc1)NC(=O)[C@@H](NC(=O)CNC(=O)[C@H](CCC(N)=O)NC(=O)C(C)(C)NC(=O)[C@@H](N)Cc1c[nH]cn1)[C@@H](C)O)[C@@H](C)O)C(=O)N[C@@H](CO)C(=O)N[C@@H](CCCCN)C(=O)N[C@@H](Cc1ccc(O)cc1)C(=O)N[C@@H](CC(C)C)C(=O)N[C@@H](CC(=O)O)C(=O)NC(C)(C)C(=O)N[C@@H](CCCNC(=N)N)C(=O)N[C@@H](C)C(=O)N[C@@H](C)C(=O)N[C@@H](CCC(N)=O)C(=O)N[C@@H](CC(=O)O)C(=O)N[C@@H](Cc1ccccc1)C(=O)N[C@H](C(=O)N[C@@H](CCC(N)=O)C(=O)N[C@@H](Cc1c[nH]c2ccccc12)C(=O)N[C@@H](CC(C)C)C(=O)N[C@@H](CC(C)C)C(=O)N[C@@H](CC(=O)O)C(=O)N[C@H](C(=O)N[C@@H](CCCCN)C(=O)N[C@@H](CCC(N)=O)C(=O)O)[C@@H](C)O)C(C)C)C(=O)O)C(=O)O

These binders were tested against T1, GIP receptor (assay by the procedure of Example 3) (assay: cell-based or functional assay).
T1 sequence (P48546 whole entry, species assumed, looked up): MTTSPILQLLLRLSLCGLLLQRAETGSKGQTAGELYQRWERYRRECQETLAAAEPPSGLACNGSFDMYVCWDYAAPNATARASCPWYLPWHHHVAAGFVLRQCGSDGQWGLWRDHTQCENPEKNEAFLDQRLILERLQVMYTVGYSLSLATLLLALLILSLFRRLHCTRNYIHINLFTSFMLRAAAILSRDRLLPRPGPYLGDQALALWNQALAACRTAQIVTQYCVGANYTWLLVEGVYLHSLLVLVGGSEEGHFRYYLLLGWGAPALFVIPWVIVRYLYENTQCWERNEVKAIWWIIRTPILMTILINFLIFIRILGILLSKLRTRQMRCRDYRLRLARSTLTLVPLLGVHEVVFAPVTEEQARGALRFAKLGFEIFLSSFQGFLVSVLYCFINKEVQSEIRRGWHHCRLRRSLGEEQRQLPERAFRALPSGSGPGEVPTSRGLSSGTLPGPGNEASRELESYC

| Binder | EC50 (nM) at GIP receptor (procedure of Example 3) |
| --- | --- |
| B1 | 976 nM |
| H[Aib]QGTFTSDYSKYLDERRA[Aib]EFVC(40K‑TE PEG)WLLDTK[γGlu]-NH2 [peptide of SEQ ID NO: 13] | 140 nM |
| H[Aib]QGTFTSDK([γGlu-γGlu-Palmitoyl])SKYLD[Aib]RAAQDFVQWLMDTK[γGlu]-NH2 [peptide of SEQ ID NO: 12] | 12.8 nM |
| B2 | 1.9 nM |
| B3 | 1.04 nM |
